Experimental data published in article PMC9482650, “Quantitative fragmentomics allow affinity mapping of interactomes” (Nature Communications, 2022).

Assays:
Assay in all cases: holdup assay
Parameters in all cases: key: below the threshold = too weak to quantify, mostly under pKd 3.1 to 4
[1] = biological target: T1, APBA3_1, O96018
T1 sequence (O96018 389-490, limits assumed, looked up): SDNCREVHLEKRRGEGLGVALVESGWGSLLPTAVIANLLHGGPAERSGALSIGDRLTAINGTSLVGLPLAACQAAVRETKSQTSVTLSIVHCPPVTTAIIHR

[2] = biological target: T2, DLG3_2, Q92796
T2 sequence (Q92796 221-321, limits assumed, looked up): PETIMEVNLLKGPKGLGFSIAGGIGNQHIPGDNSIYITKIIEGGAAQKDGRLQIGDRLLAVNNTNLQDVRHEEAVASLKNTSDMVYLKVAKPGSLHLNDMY

[3] = biological target: T3, FRMPD1, Q5SYB0
T3 sequence (Q5SYB0 52-145, limits assumed, looked up): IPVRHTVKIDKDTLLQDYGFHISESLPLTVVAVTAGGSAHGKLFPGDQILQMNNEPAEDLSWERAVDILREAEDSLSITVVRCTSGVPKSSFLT

[4] = biological target: FRMPD2_3, Q68DX3
[5] = biological target: FRMPD4, Q14CM0
[6] = biological target: GORASP1, Q9BQQ3
[7] = biological target: T4, GRIP1_4, Q9Y3R0
T4 sequence (Q9Y3R0 467-571, limits assumed, looked up): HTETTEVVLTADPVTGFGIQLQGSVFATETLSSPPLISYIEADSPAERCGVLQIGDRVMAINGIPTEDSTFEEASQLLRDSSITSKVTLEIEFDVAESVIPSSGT

[8] = biological target: T5, GRIP1_5, Q9Y3R0
T5 sequence (Q9Y3R0 568-668, limits assumed, looked up): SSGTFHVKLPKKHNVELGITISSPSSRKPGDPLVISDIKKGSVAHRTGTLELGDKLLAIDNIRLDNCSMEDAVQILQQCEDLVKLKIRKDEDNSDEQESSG

[9] = biological target: GRIP2_7, Q9C0E4
[10] = biological target: HTRA1, Q92743
[11] = biological target: HTRA2, O43464
[12] = biological target: T6, HTRA3, P83110
T6 sequence (P83110 354-453, limits assumed, looked up): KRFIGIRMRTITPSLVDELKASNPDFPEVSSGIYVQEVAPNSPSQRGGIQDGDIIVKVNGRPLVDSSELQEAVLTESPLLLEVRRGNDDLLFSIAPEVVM

[13] = biological target: IL16_3, Q14005
[14] = biological target: Inadl_3, Q8NI35
[15] = biological target: Inadl_5, Q8NI35
[16] = biological target: LIMK2, P53671
[17] = biological target: LNX1_2, Q8TBB1
[18] = biological target: MAGI2_2, Q86UL8
[19] = biological target: MAGI2_6, Q86UL8
[20] = biological target: NHERF4_4, Q86UT5
[21] = biological target: T7, PDZD2_2, O15018
T7 sequence (O15018 329-429, limits assumed, looked up): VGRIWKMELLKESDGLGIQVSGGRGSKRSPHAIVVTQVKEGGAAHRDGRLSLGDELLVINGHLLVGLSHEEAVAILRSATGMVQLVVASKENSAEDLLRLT

[22] = biological target: T8, PDZD7_3, Q9H5P4
T8 sequence (Q9H5P4 857-944, limits assumed, looked up): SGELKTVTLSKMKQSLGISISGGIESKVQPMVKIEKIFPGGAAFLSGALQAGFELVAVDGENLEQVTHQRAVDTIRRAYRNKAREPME

[23] = biological target: T9, SIPA1L2, Q9P2F8
T9 sequence (Q9P2F8 945-1036, limits assumed, looked up): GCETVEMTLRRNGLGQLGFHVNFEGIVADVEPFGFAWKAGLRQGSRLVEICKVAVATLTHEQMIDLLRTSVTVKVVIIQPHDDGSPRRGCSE

[24] = biological target: T10, SNTG2, Q9NY99
T10 sequence (Q9NY99 68-166, limits assumed, looked up): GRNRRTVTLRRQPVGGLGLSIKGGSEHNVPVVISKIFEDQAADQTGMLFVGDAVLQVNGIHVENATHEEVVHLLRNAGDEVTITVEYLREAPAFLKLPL

[25] = biological target: TJP1_3, Q07157
[26] = biological target: T11, TJP3_3, O95049
T11 sequence (O95049 375-456, limits assumed, looked up): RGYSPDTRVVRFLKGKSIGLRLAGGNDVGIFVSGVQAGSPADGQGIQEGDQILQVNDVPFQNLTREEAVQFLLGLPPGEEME

[27] = plain residues with an end cap or a label only (N-terminal biotin on a linker: ahx)
[28] = plain residues with an end cap or a label only (N-terminal biotin on a linker: ttds)
[29] = plain residues with an end cap or a label only (N-terminal biotin on a linker: ado-ado)

Measured: pKd

Chain of FRMPD4, Q14CM0 (Q14CM0 67-160): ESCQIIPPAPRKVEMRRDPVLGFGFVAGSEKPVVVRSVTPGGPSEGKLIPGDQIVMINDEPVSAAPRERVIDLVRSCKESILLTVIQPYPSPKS
Chain of Inadl_5, Q8NI35 (Q8NI35 673-780): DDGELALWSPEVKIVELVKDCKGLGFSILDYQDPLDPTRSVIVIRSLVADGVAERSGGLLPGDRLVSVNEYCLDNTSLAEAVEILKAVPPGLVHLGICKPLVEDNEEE
Chain of HTRA1, Q92743 (Q92743 360-477): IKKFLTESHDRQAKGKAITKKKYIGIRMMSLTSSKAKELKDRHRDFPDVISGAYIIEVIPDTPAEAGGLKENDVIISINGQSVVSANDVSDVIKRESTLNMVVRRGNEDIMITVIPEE
Chain of LNX1_2, Q8TBB1 (Q8TBB1 371-470): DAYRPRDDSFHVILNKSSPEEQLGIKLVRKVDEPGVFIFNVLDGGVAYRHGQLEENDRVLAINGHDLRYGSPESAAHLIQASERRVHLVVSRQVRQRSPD
Chain of Inadl_3, Q8NI35 (Q8NI35 359-469): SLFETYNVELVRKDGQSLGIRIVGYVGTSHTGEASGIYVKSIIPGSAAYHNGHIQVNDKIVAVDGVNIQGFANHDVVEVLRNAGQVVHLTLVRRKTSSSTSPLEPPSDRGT
Chain of MAGI2_6, Q86UL8 (Q86UL8 1141-1229): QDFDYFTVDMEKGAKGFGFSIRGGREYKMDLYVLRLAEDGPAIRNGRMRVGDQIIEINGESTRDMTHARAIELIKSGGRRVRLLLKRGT
Chain of GORASP1, Q9BQQ3 (Q9BQQ3 1-208): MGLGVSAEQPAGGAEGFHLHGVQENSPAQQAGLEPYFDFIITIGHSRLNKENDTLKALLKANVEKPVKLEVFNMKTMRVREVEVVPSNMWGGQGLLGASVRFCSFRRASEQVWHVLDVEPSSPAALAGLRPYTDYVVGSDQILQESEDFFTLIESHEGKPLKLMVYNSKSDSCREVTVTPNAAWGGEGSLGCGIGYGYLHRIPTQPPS
Chain of NHERF4_4, Q86UT5 (Q86UT5 464-550): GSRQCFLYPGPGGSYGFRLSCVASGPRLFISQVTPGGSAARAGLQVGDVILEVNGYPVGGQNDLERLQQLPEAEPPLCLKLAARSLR
Chain of HTRA2, O43464 (O43464 355-458): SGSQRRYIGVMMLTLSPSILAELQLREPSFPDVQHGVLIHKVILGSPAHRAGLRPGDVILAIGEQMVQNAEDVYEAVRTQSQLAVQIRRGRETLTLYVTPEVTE
Chain of LIMK2, P53671 (P53671 143-248): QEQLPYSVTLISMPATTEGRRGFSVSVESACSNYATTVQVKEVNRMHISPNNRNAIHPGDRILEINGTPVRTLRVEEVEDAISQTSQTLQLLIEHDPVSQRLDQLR
Chain of GRIP2_7, Q9C0E4 (Q9C0E4 934-1023): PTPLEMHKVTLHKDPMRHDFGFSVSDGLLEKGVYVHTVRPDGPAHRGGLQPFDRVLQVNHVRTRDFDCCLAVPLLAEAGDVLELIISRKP
Chain of TJP1_3, Q07157 (Q07157 416-512): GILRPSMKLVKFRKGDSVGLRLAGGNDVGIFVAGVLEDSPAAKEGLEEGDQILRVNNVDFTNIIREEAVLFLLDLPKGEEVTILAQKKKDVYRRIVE
Chain of FRMPD2_3, Q68DX3 (Q68DX3 1073-1166): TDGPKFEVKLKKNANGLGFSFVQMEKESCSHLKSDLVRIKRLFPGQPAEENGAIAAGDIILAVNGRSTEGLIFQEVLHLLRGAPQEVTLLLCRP
Chain of IL16_3, Q14005 (Q14005 1107-1207): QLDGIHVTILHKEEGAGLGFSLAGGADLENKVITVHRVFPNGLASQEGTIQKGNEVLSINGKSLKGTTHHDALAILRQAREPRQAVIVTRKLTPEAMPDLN
Chain of MAGI2_2, Q86UL8 (Q86UL8 410-522): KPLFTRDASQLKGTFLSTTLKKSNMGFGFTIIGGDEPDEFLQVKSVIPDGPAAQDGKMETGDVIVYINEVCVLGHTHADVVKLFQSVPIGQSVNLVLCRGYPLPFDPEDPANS

RAVEEEESRF [PSCDBP, O60759]
below the threshold: [1]; [27] | [2]; [27] | [3]; [27] | [4]; [27] | [5]; [27] | [6]; [27] | [7]; [27] | [8]; [27] | [9]; [27] | [10]; [27] | [11]; [27] | [12]; [27] | [13]; [27] | [14]; [27] | [15]; [27] | [16]; [27] | [17]; [27] | [18]; [27] | [19]; [27] | [20]; [27] | [21]; [27] | [22]; [27] | [23]; [27] | [24]; [27] | [25]; [27] | [26]; [27]

RRRKRKRTYL [HPV49-L2, P36762]
5.33: [18]; [27]
3.68: [9]; [27]
3.53: [5]; [27] | [20]; [27]
3.8: [21]; [27]
3.72: [14]; [27]
3.57: [24]; [27]
below the threshold: [1]; [27] | [2]; [27] | [3]; [27] | [4]; [27] | [8]; [27] | [12]; [27] | [13]; [27] | [16]; [27] | [17]; [27] | [19]; [27] | [23]; [27] | [25]; [27] | [26]; [27]
4.65: [6]; [27]
4.31: [22]; [27]
4.04: [7]; [27]
3.99: [10]; [27]
4.05: [15]; [27]
3.49: [11]; [27]

NRKREIFSNF [NHERF2, Q15599]
below the threshold: [1]; [27] | [2]; [27] | [3]; [27] | [4]; [27] | [5]; [27] | [6]; [27] | [7]; [27] | [8]; [27] | [9]; [27] | [10]; [27] | [11]; [27] | [12]; [27] | [13]; [27] | [14]; [27] | [15]; [27] | [16]; [27] | [17]; [27] | [18]; [27] | [20]; [27] | [21]; [27] | [22]; [27] | [23]; [27] | [24]; [27] | [25]; [27] | [26]; [27]
3.55: [19]; [27]

RPLPRKVSQL [DOCK4, Q8N1I0]
3.55: [6]; [28]
4.5: [22]; [28]
4.6: [18]; [28]
3.77: [24]; [28]
below the threshold: [1]; [28] | [2]; [28] | [3]; [28] | [4]; [28] | [5]; [28] | [7]; [28] | [8]; [28] | [9]; [28] | [10]; [28] | [11]; [28] | [12]; [28] | [13]; [28] | [14]; [28] | [15]; [28] | [16]; [28] | [17]; [28] | [19]; [28] | [20]; [28] | [21]; [28] | [23]; [28] | [25]; [28] | [26]; [28]

PLSPEQPTKL [TRIM50, Q86XT4]
4.04: [22]; [29]
below the threshold: [1]; [29] | [2]; [29] | [3]; [29] | [4]; [29] | [6]; [29] | [7]; [29] | [8]; [29] | [9]; [29] | [10]; [29] | [11]; [29] | [12]; [29] | [13]; [29] | [14]; [29] | [15]; [29] | [16]; [29] | [17]; [29] | [18]; [29] | [19]; [29] | [20]; [29] | [21]; [29] | [23]; [29] | [24]; [29] | [25]; [29] | [26]; [29]
3.61: [5]; [29]
